Test results as given in article PMC8270960, “Native flagellar MS ring is formed by 34 subunits with 23-fold and 11-fold subsymmetries” (Nature Communications, 2021).

T1: FliF of the native flagellar basal body (native MS ring) (Salmonella enterica serovar Typhimurium …, UniProt P15928 1-560)
T1 construct: source: endogenous, basal body purified from Salmonella HK1003 (sucrose density gradient); copies: 34
T1 sequence: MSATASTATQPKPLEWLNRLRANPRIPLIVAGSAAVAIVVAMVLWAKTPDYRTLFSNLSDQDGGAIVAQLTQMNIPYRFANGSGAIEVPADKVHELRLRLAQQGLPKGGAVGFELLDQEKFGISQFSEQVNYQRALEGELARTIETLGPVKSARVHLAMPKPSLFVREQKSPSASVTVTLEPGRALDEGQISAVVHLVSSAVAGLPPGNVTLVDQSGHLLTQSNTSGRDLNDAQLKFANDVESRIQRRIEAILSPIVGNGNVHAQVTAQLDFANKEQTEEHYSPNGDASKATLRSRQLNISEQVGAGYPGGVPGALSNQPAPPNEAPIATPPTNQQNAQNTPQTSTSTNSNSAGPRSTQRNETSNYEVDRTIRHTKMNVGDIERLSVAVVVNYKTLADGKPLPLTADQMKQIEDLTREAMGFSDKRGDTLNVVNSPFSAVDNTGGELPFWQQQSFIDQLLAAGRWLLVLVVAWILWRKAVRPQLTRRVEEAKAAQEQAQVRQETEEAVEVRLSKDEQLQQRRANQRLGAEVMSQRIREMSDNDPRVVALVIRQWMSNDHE

B1: full-length Salmonella FliF (MS ring, dataset 1, from pKOT112) (natural protein)
chain: MSATASTATQPKPLEWLNRLRANPRIPLIVAGSAAVAIVVAMVLWAKTPDYRTLFSNLSDQDGGAIVAQLTQMNIPYRFANGSGAIEVPADKVHELRLRLAQQGLPKGGAVGFELLDQEKFGISQFSEQVNYQRALEGELARTIETLGPVKSARVHLAMPKPSLFVREQKSPSASVTVTLEPGRALDEGQISAVVHLVSSAVAGLPPGNVTLVDQSGHLLTQSNTSGRDLNDAQLKFANDVESRIQRRIEAILSPIVGNGNVHAQVTAQLDFANKEQTEEHYSPNGDASKATLRSRQLNISEQVGAGYPGGVPGALSNQPAPPNEAPIATPPTNQQNAQNTPQTSTSTNSNSAGPRSTQRNETSNYEVDRTIRHTKMNVGDIERLSVAVVVNYKTLADGKPLPLTADQMKQIEDLTREAMGFSDKRGDTLNVVNSPFSAVDNTGGELPFWQQQSFIDQLLAAGRWLLVLVVAWILWRKAVRPQLTRRVEEAKAAQEQAQVRQETEEAVEVRLSKDEQLQQRRANQRLGAEVMSQRIREMSDNDPRVVALVIRQWMSNDHE
notes: also called MS ring formed by full-length FliF; FliF ring dataset 1; source: E. coli BL21 (DE3) carrying pKOT112, MS ring purified from the membrane fraction (sucrose gradient, LMNG); copies: 34
B2: FliG of the C ring of the native basal body (wild-type, CCW motor) (natural protein)
chain: MSNLSGTDKSVILLMTIGEDRAAEVFKHLSTREVQALSTAMANVRQISNKQLTDVLSEFEQEAEQFAALNINANEYLRSVLVKALGEERASSLLEDILETRDTTSGIETLNFMEPQSAADLIRDEHPQIIATILVHLKRSQAADILALFDERLRHDVMLRIATFGGVQPAALAELTEVLNGLLDGQNLKRSKMGGVRTAAEIINLMKTQQEEAVITAVREFDGELAQKIIDEMFLFENLVDVDDRSIQRLLQEVDSESLLIALKGAEPPLREKFLRNMSQRAADILRDDLANRGPVRLSQVENEQKAILLIVRRLAETGEMVIGSGEDTYV
notes: source: endogenous, basal body purified from Salmonella HK1003 (sucrose density gradient)

What was measured:
[1] = target: the molecule itself; assay: cryo-EM structure; MS ring of full-length FliF (dataset 1, pKOT112) in Buffer S with 0.05% LMNG; 2D classes and 3D refinement with C34 symmetry, 3.7 Å
[2] = target: T1, FliF of the native flagellar basal body …; assay: cryo-EM structure; 2D class averages of end-on views of the basal body (rivet) purified from Salmonella HK1003; rotational symmetry by autocorrelation and Fourier transformation; assembly formed in cells, purified as a whole; conditions: both partners purified

| Binder | stoichiometry N [1] [subunits] | binding result [2] |
| --- | --- | --- |
| B1 | 34 |  |
| B2 |  | binds |
